{
  "source": "FireProtDB (doi:10.1021/bi050342n)",
  "settings": "Pseudomonas aeruginosa (strain ATCC 15692 / DSM 22644 / CIP 104116 / JCM 14847 / LMG 12228 / 1C / PRS 101 / PAO1); pH 7; 25 °C; GdnHCl; Fluorescence, CD; Tris-HCl 100 mM; reversible: Yes; whole UniProt chain shown",
  "data": [
    {"protein": "Azurin wild type, P00282 (protein) MLRKLAAVSLLSLLSAPLLAAECSVDIQGNDQMQFNTNAITVDKSCKQFTVNLSHPGNLPKNVMGHNWVLSTAADMQGVVTDGMASGLDKDYLKPDDSRVIAHTKLIGSGEKDSVTFDVSKLKEGEQYMFFCTFPGHSALMKGTLTLK", "values": [
      {"measurement": "denaturant m value", "result": 4.06, "unit": "kcal/mol/M"},
      {"measurement": "unfolding free energy", "result": 12.9, "unit": "kcal/mol"}
    ]}
  ]
}
